B1: TRP-PLIK2-GST fusion protein (TRP-PLIK2 kinase domain fused to GST) (protein)
chain: PMTMSSPLSQAKIMQTGGGYVNWAFSEGDETGVFSIKKKWQTCLPSTCDSDSSRSEQHQKQAQDSSLSDNSTRSAQSSECSEVGPWLQPNTSFWINPLRRYRPFARSHSFRFHKEEKLMKICKIKNLSGSSEIGQGAWVKAKMLTKDRRLSKKKKNTQGLQVPIITVNACSQSDQLNPEPGENSISEEEYSKNWFTVSKFSHTGVEPYIHQKMKTKEIGQCAIQISDYLKQSQEDLSKNSLWNSRSTNLNRNSLLKSSIGVDKISASLKSPQEPHHHYSAIERNNLMRLSQTIPFTPVQLFAGEEITVYRLEESSPLNLDKSMSSWSQRGRAAMIQVLSREEMDGGLRKAMRVVSTWSEDDILKPGQVFIVKSFLPEVVRTWHKIFQESTVLHLCLREIQQQRAAQKLIYTFNQVKPQTIPYTPRFLEVFLIYCHSANQWLTIEKYMTGEFRKYNNNNGDEITPTNTLEELMLAFSHWTYEYTRGELLVLDLQGVGENLTDPSVIKPEVKQSRGMVFGPANLGEDAIRNFIAKHHCNSCCRKLKLPDLKRNDYSPERINSTFGLEIKIESAEEPPARETGRNSPEDDMQL
As for B1, the “32P incorporation (kinase assay, SDS-PAGE, autoradiography)” value with Histon is “MBP was determined to be a preferred substrate over Histon”. In the data set with MBP, the “32P incorporation (kinase assay, SDS-PAGE, autoradiography)” value was “MBP was determined to be a preferred substrate over Histon” and the “incorporated 32P in the substrate (kinase assay, SDS-PAGE, autoradiography)” value was “predicted TRP-PLIK2 kinase domain was determined to have kinase activity as demonstrated by the phosphorylated MBP protein”.

The record behind these values is patent US20030144191.
